According to patent publication US20050186180A1:

Molecular target: murine B7-2 (recombinant, expressed from rV-B7-2 in BSC-1 cells) (murine) (UniProt P42082)
Assay: flow cytometry, BSC-1 cells infected with rV-B7-2 (10 MOI), FITC-conjugated antibody

Sequence of UniProt P42082 (P42082 24-309): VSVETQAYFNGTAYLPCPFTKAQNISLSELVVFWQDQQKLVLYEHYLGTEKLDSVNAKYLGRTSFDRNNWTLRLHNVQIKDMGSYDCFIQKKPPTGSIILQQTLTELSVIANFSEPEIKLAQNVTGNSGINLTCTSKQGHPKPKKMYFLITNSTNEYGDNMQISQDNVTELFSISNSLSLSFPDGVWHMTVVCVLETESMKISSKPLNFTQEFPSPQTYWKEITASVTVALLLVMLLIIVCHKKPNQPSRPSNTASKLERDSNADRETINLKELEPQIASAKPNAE

Rat-anti-mouse B7-2 (GL-1) monoclonal antibody (Pharmingen)
mean fluorescence: 1800 | percent of cells positive: 98.8%
